In this data set the target is T1, CasX 119 (in cells) (Planctomycetes).
T1 chain: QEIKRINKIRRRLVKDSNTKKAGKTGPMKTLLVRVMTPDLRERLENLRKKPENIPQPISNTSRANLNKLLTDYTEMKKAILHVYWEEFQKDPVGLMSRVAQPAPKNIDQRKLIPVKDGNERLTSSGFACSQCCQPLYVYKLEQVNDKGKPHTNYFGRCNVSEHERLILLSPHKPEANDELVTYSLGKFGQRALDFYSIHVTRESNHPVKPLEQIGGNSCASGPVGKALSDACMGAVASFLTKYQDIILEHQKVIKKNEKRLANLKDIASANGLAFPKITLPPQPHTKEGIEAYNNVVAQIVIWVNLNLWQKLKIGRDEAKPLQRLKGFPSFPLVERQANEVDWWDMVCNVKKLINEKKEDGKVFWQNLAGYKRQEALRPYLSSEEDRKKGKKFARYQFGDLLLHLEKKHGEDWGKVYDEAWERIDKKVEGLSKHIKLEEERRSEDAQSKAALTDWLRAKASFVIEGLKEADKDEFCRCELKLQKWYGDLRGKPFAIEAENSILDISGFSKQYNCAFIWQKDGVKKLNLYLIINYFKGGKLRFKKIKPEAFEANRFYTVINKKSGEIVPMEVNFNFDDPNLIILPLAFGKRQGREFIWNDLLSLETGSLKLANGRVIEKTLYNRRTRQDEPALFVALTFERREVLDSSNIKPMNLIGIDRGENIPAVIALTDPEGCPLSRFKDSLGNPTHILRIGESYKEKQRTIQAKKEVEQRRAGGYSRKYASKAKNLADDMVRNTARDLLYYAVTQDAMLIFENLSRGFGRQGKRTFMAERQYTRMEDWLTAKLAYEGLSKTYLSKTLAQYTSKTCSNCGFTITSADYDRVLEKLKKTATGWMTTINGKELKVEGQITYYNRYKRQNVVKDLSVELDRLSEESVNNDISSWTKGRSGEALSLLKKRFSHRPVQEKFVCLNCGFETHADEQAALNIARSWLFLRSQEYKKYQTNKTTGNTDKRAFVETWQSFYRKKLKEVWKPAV
Description: cell_activity; TTC PAM; SOD1-GFP reporter, GFP disruption. To be noted: tags: NLS. The source says: A SOD1-GFP reporter line was constructed by knocking in GFP at the endogenous human SOD1 locus, shown schematically in FIG. 19. A reporter (e.g., GFP reporter) coupled to a gRNA targeting sequence, complementary to the gRNA spacer, is integrated into a reporter cell line. Cells are transformed or transfected with a CasX protein and/or sgRNA variant, with the spacer motif of the sgRNA complementary to and targeting the gRNA target sequence of the reporter. The ability of the CasX:sgRNA ribonucleoprotein complex to cleave the target nucleic acid sequence is assayed by FACS. Cells that lose reporter expression indicate occurrence of CasX:sgRNA ribonucleoprotein complex-mediated cleavage and indel formation. The reporting system is based on reduced GFP fluorescence upon successful modifying (editing) of the SOD1 locus, detected by flow cytometry as shown in FIG. 20.
CasX 2 (SEQ ID NO:2) and guide 2 (SEQ ID NO:5) (labeled here as StX) and CasX 119 molecule and rRNA guide 64 (119.64) (labeled here as EvoXI) with SOD1 targeting spacers (2, with an encoding sequence of […] (SEQ ID NO: 310), and spacer 4, with an encoding sequence of […] (SEQ ID NO: 366)), were lipofected into SOD1-GFP reporter cells, selected for successful lipofection using puromycin, and later assayed for GFP disruption via FACS.

B1: sgRNA 64 SOD1 spacer 2 ; SOD1 exon 2 site (spacer 2) (ssRNA ; dsDNA)
RNA: GUACUGGCGCCUUUAUCUCAUUACUUUGAGAGCCAUCACCAGCGACUAUGUCGUAUGGGUAAAGCGCUUACGGACUUCGGUCCGUAAGAAGCAUCAAAGAUGUUCAUGAGUUUGGAGAU
DNA 1: ATGTTCATGAGTTTGGAGAT
DNA 2: ATCTCCAAACTCATGAACAT
B1: the binding signal was found to be 35 fold vs CasX2 guide 2.
